These results are taken from paper PMC10920075 (Nature structural & molecular biology, 2023).

The data set deals with the molecule itself. The data set is described as follows: cryo-EM structure.

B1: DNA polymerase γ accessory subunit PolγB (natural protein, human, UniProt Q9UHN1 26-485, looked up)
chain: DAGQPELLTERSSPKGGHVKSHAELEGNGEHPEAPGSGEGSEALLEICQRRHFLSGSKQQLSRDSLLSGCHPGFGPLGVELRKNLAAEWWTSVVVFREQVFPVDALHHKPGPLLPGDSAFRLVSAETLREILQDKELSKEQLVAFLENVLKTSGKLRENLLHGALEHYVNCLDLVNKRLPYGLAQIGVCFHPVFDTKQIRNGVKSIGEKTEASLVWFTPPRTSNQWLDFWLRHRLQWWRKFAMSPSNFSSSDCQDEEGRKGNKLYYNFPWGKELIETLWNLGDHELLHMYPGNVSKLHGRDGRKNVVPCVLSVNGDLDRGMLAYLYDSFQLTENSFTRKKNLHRKVLKLHPCLAPIKVALDVGRGPTLELRQVCQGLFNELLENGISVWPGYLETMQSSLEQLYSKYDEMSILFTVLVTETTLENGLIHLRSRDTTMKEMMHISKLKDFLIKYISSAKNV
As usually defined, the stoichiometry N is a count of units in the complex or per binding partner. For B1, the “stoichiometry N” value came out at 2.
